Results as given in US20210347912A1.

Biological target: Human YKL-40 also known as Chitinase-3-like protein 1 (CHI3L1) (human) (UniProt P36222)
Experiment: phage ELISA, plate coated with 0.5 ug purified YKL-40, anti-M13-HRP/TMB, well F2

Sequence of UniProt P36222 (P36222 22-383 limits assumed): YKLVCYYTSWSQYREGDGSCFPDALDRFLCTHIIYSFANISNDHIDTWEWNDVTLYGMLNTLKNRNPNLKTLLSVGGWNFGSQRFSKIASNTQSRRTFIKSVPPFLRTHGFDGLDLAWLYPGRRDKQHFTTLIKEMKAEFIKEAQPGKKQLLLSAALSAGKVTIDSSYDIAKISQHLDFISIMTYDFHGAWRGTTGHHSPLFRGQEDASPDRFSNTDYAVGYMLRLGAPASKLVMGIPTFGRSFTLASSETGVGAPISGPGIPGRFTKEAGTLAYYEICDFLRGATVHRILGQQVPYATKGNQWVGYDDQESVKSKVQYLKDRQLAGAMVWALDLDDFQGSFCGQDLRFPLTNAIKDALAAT

- ELISA signal: 0.054
B1: 2B8 predator (VHH)
VHH: EVQLLESGGGLVQPGGSLRLSCAASGFRDSDEDMGWVRQAPGKGLEWVSSIYAPNGSTYYADSVKGRFTISRDNSKNTLYLQMNSLRAEDTAVYYCASNTYDAFDYWGQGTLVTVSS
